From the supplement of paper PMC12764529
± gives the half width of the 95% confidence interval.

Assays:
[1] = folding stability dG unfold (combined trypsin and chymotrypsin); higher = more stable
In short: (§1)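 Unfolding free energy was derived, per protease or combined, against a sequence-predicted unfolded-state K50 and a shared folded-state K50, starting from K50 inferred by Bayesian fitting of sequencing counts. Digestion with trypsin and chymotrypsin was carried out on designed mini-proteins under 80 residues without cysteine in a PA-tagged cDNA display construct. Only designs with AlphaFold2 dimer inter-PAE above 15 were kept.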

[2] = folding stability dG unfold from chymotrypsin proteolysis; higher = more stable
In short: as §1

[3] = folding stability dG unfold from trypsin proteolysis; higher = more stable
In short: as §1

Row | Sequence | folding stability dG unfold [1] [kcal/mol] | folding stability dG unfold [2] [kcal/mol] | folding stability dG unfold [3] [kcal/mol]
1 | SAGGGSLEKIREAGKKGYLVRIELETGERRVIPIEDLIRDPRFGPDVPLAELRVRRIELLPPDDGLPLSAGG [r13_587_TrMRF] | 1.13 ± 0.062 | 0.889 ± 0.069 | 1.27 ± 0.036
2 | SAGGGSMAASSVTSEEKPLPDGSSLSIPEITRPDNVATLTVEYYDPKTGTKYTFTLTIPISPDDTVTLSAGG [r13_190_JUSTAS] | 1.99 ± 0.15 | 1.97 ± 0.06 | 1.79 ± 0.086
3 | SAGGGSMIKKTLEEEPVGESTVSKSTVTLPDGTPVSVTSTTTKVGNTWTTTTTTNYGSSTTTTTTTTSAGGS [r16_476_JUSTAS] | 0.156 ± 0.15 | 0.419 ± 0.11 | -0.638 ± 0.21
4 | SAGGGSMTTVRLTREINLPSSVSDEEIIEEIKEELPENYEILEVKIEKDPKTGKYYIEAEVKIPKLGSAGGS [r16_396_JUSTAS] | 1.88 ± 0.056 | 2.269 ± 0.02 | 0.904 ± 0.027
5 | SAGGGSSSLPAVPVSVETFTFPYKTEEEAKAAAEELAKKLEAEDGKPVKVEVSFDPATGTATVTITVVSAGG [r13_517_JUSTAS] | 3.815 ± 0.035 | 3.791 ± 0.036 | 4.2 ± 0.16
6 | SAGGGSSSTTLTLREVTEVIVIPVPPEEEELAEELAKKYESQGIKVELERLPDGTWKLTLTYYRGVSLSAGG [r13_702_JUSTAS] | 1.03 ± 0.081 | 0.827 ± 0.15 | 1.15 ± 0.11
7 | SAGGGSSVLSETVSVDPNNVTTTTTTYKAGDTTSTTTTTTTTTPPVPNLPLPPPPPVSPEAIALGLLLSAGG [r13_760_JUSTAS] | 0.481 ± 0.059 | -0.0352 ± 0.18 | 0.648 ± 0.052
8 | SAGGGSSYTLLSESTSTDPATGATLTTTTYRAPDGTIYYDSTLTAPDGTTTGTATAVDPDGTPVTIALSAGG [r13_573_JUSTAS] | 1.41 ± 0.1 | 1.39 ± 0.12 | 1.32 ± 0.035
9 | SAGGGSTSTSTSTSTDPATGATTTTTTTTVPTPDGSGTVTTTTTTVPGAAPDTDTAPVTTTTTTTPTPSAGG [r13_715_JUSTAS] | 2.32 ± 0.21 | 2.14 ± 0.086 | 2.49 ± 0.1
10 | SAGGGSTVTTTTPDGTSVSTTTLPDGTVTATATYPDSTVSTTYDPATNTTTVTTTSGGTTVATTTVAASAGG [r13_748_JUSTAS] | 1.89 ± 0.065 | 1.39 ± 0.031 | 2.48 ± 0.11
11 | SAGGGSVSITLELEEEEEIEEIVNEKGIPEPLEKRIKKKVTITISPPPTLSSSSSVTGLAEKAIEEKSAGGS [r16_359_JUSTAS] | 0.101 ± 0.31 | 0.511 ± 0.069 | -0.425 ± 0.22
12 | SAGGGSVSVTPVKEIPGPGTTTLYRETHPDDRTVLITYNPATGTVTVTTYKGNTKTSTTTYNTPESLSAGGS [r16_457_JUSTAS] | 1.42 ± 0.098 | 1.53 ± 0.13 | 1.05 ± 0.035
13 | SAGGGSYTIVVELGDKKVVFEIDKEEAVEEAVAKLPELGLEVEVLKKEKVLNEDGKPSVLVEVKVKPSAGGS [r8_336_TrMRF] | 0.631 ± 0.1 | 1.12 ± 0.059 | -0.663 ± 0.17
14 | SAGGGTYIEIKVTYSDGTTETFTVPAKPEDIETVVKEIEDKLKELGGTITSIKIENGKITIEATIPDSAGGS [r16_662_TrMRF] | 3.06 ± 0.18 | 3.3 ± 0.087 | 2.41 ± 0.19
15 | SAGGHHMTIETFEEPDKLTVVVDGDDPEATREYLLQKVKEESSRKPVKVTFTEDPNGKLTITFDLKEESAGG [r13_158_JUSTAS] | -0.17 ± 0.34 | -0.186 ± 0.34 | -0.568 ± 0.26
16 | SAGGHTIMFPVKSPEQARDEIRDFARDQGLPIEPEDITIEQHEFKDPENGKKYRFFEITIDVTLKPPSAGGS [r16_587_TrROS] | 1.02 ± 0.15 | 1.49 ± 0.11 | 0.0514 ± 0.056
17 | SAGGIEEAIKEGKTVIIRVKVIDKETGKEYERTIEVPANEEISLEELLKALLPPGYEVEIEVVELEPSAGGS [r8_127_TrROS_Hall] | 3.65 ± 0.4 | 3.03 ± 0.51 | 3.78 ± 0.33
18 | SAGGIEIPVNPHPSEDGQPYVMFTLEIEPKDDNGKKQERPIPFMFDSPDDAEEFASEAAPDGYKIRISAGGS [r16_652_TrROS] | -0.0602 ± 0.15 | 0.196 ± 0.11 | -0.86 ± 0.48
19 | SAGGIIPIENASWDELLNALKEAAEKGDPNVTITFQDPGRPYWIQIDPDENNIEVEHPNGETWRFKISAGGS [r16_481_TrROS] | 0.905 ± 0.18 | 0.995 ± 0.14 | 0.749 ± 0.089
20 | SAGGIKEVKFDPKTNTLTVYLPEVGATITYNPTAGKLEIYSKDGKPKTIDVPTPSEMKKAILKAYKELKSAG [r5_467_TrMRF] | 2.69 ± 0.21 | 2.84 ± 0.069 | 1.82 ± 0.064
21 | SAGGIKIERDPNMWKFEIPLPNKPLTIHISQSDGRYTIAIYENGKPIRTVPFPGPVDDAIERALKKLSAGGS [r8_276_TrROS] | 1.93 ± 0.054 | 2.05 ± 0.032 | 1.66 ± 0.034

Row | Sequence | folding stability dG unfold [1] [kcal/mol] | folding stability dG unfold [2] [kcal/mol] | folding stability dG unfold [3] [kcal/mol]
22 | SAGGIKIMIPPGMPEEEARELARMIASMLPDNGHNIDDVKVRPVKPMPPPDGEPHRMYEFEIKLEPPSAGGS [r16_266_TrROS] | 0.738 ± 0.11 | 0.35 ± 0.1 | 1.01 ± 0.035
23 | SAGGIKIQDPDDGEWIEFPLPIRNPGDGKPYPFKVEIPVRRDPENGRPYFYIEIEFPGNGRKMTFPLRSAGG [r13_262_TrROS] | 0.918 ± 0.057 | 1.12 ± 0.058 | 0.518 ± 0.06
24 | SAGGIKPDEPAIVLVKIPLPPGPNPEGGLEGPVLKTFPLEVGFPSLEELIEAVKELFPEGTEVEIIPSAGGS [r16_282_TrMRF] | 0.455 ± 0.1 | -0.431 ± 0.13 | 1.06 ± 0.042
25 | SAGGIRIDDEGMIQIYFPGWRHTIPIKPNLEITEITIPDDGYIKITFRIPGKTVKHEFPMLPPGQEISAGGS [r16_635_TrROS] | 1.82 ± 0.27 | 1.32 ± 0.1 | 2.35 ± 0.082
26 | SAGGIRIKPGQILVIDIERPTGNERKIIIPMDDPEEVIEQLGFPPENFRIKDIEVVPMPPEQAKDFLESAGG [r13_850_TrROS] | 0.321 ± 0.17 | 0.585 ± 0.1 | -0.0896 ± 0.28
27 | SAGGITIRGMPWEWAEEIAKTLAQEGYRLKDVEVEEDPPDGYYSVTVQQRDPETGKPKKPVTISIPPSAGGS [r16_750_TrROS] | 0.515 ± 0.43 | 0.0769 ± 0.44 | 0.594 ± 0.13
28 | SAGGITIVWQPGYFRIEFPGNGNTVPIPIPPDDPGRTLEEFADEFIDEMSERFGIPPPEDIKIEYYDSAGGS [r8_402_TrROS] | 1.39 ± 0.15 | 1.36 ± 0.084 | 1.31 ± 0.13
29 | SAGGIVEEAIKKLFESGIPLSEEEIKEIIEKAIKEENEKKGKKIEKIEIGEIKFNPETGYAPIKIKASAGGS [r16_365_TrMRF] | 0.856 ± 0.83 | 1.44 ± 0.13 | -0.383 ± 0.48
30 | SAGGIVPLPNGHWVIMAQFEVDEGQTVDDAPEFAREIAKTFGIKPTQVQVDPEKGYVNVAIKIPPGALSAGG [r13_178_TrROS] | 0.327 ± 0.25 | 0.263 ± 0.35 | 0.217 ± 0.11
31 | SAGGIVVGEEGVVRITGPGEPVIIPLPENSEVVEIDVPDDGYVRITLRVDGKTVTVDFPSAPPGLTLSAGGS [r16_635_TrMRF] | 0.927 ± 0.051 | 0.355 ± 0.041 | 1.34 ± 0.038
32 | SAGGIVVKVADGSYVRIVVYDPNNPVPRIETFPGGGVDDVIAAIAASPSFPNTVVYVERFDDGKPYPASAGG [r13_914_TrMRF] | 0.747 ± 0.075 | 0.664 ± 0.055 | 0.871 ± 0.043
33 | SAGGKEIEELAKKLAEELGVEVVKVEVEKVGPDTVKVTVTLKDGKKIKIEIKKKKDGSYEIKVEIEPSAGGS [r8_284_TrROS_Hall] | 2.97 ± 0.3 | 2.63 ± 0.22 | 3.08 ± 0.19
34 | SAGGKEIKIEVELDEDGNLTVTITLPDGRVVRITFTPGKITVEVFDAETGELVEEKTLTADELLELLSAGGS [r8_476_TrROS_Hall] | 3.67 ± 0.13 | 3.81 ± 0.13 | 3.46 ± 0.16
35 | SAGGKEIYVVRIEVYYPSNGKVEEKEYVIEATPEEAEELAKKIAEAFKEEAGEEVEVLRVEIKVYDLSAGGS [r16_140_TrMRF] | 4.65 ± 0.12 | 4.68 ± 0.072 | 3.82 ± 0.22
36 | SAGGKEVKITFKAPKEEAVPKVKKAAEEYGVTVKSIDYDPETGKVTVVVDDSVPEEKVKEAFEKVLKSAGGS [r8_338_TrMRF] | 1.75 ± 0.21 | 1.75 ± 0.082 | 1.53 ± 0.078
37 | SAGGKEVVIVFPLPENFEAEIFIPDRPVVRLENGLLVAVAPENVPALIVIRNPNGEELVLPVELLDLSAGGS [r8_72_TrMRF] | 1.32 ± 0.084 | 1.28 ± 0.014 | 1.27 ± 0.037
38 | SAGGKEYYLVKIEIEVTPENGKKETIEIELIVDGNPEEALKKAKEIAEYLEKKGFKVEIKKIEVYPASAGGS [r16_525_TrMRF] | 4.54 ± 0.15 | 4.55 ± 0.073 | 3.9 ± 0.15
39 | SAGGKIEEVARELAKELNAVSIDFRTEGDVPSVEIRFRIPGSPLWLRVTITRDPDGNISVSIEPDPRSAGGS [r16_433_TrMRF] | 3.75 ± 0.09 | 4.16 ± 0.074 | 2.94 ± 0.054
40 | SAGGKIKIMDIEIERHGGYYKIEIWIQVDTPDDIEDLLKAGVPNVEVERRRNPNGRLYVQAEFYIPAGSAGG [r13_506_TrROS] | 3.14 ± 0.26 | 3.49 ± 0.17 | 1.74 ± 0.11
41 | SAGGKIKIRNPKTGLIVEVLEYNPETGKFKVKVTFPDGSVEEKEFPGSLEDLIEWLESEGFPFEVEGSAGGS [r16_748_TrMRF] | 3.37 ± 0.16 | 3.72 ± 0.13 | 2.26 ± 0.13
42 | SAGGKIKKGETVKIKIEIENKNGEKKTIELEVKKEDLEKLKELIEKLKEKGFKIKKIEIKVLKKEKKSAGGS [r8_497_TrROS_Hall] | 2.51 ± 0.2 | 2.96 ± 0.03 | 1.02 ± 0.13
